Assay [1] addresses T1, human IL2Rγ (endogenously expressed on cells) (human, UniProt P31785 23-369).
T1 sequence (looked up): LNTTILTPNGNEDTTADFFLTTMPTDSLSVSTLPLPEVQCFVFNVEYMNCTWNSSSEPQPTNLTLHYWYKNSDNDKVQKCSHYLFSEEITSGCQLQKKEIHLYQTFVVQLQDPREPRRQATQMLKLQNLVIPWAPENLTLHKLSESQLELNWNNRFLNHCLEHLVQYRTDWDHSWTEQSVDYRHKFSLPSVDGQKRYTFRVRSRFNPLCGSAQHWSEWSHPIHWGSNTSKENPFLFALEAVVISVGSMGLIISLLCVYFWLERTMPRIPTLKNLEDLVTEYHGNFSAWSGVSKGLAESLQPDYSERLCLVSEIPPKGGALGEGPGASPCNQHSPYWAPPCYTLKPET
As to the kind of experiment: cell-based or functional assay.

Assay [2] addresses T1, human IL2Rγ (endogenously expressed on …). In words: cell-based or functional assay. This is another data set of the same source.
Assay [3] shares this target. As to the kind of experiment: cell-based or functional assay. This is another data set of the same source.
Assay [4] addresses T2, D1 domain of human IL-2Rγ extracellular domain expressed with a C-terminal myc-myc-hexahistidine tag (human).
T2 construct: also called human IL2Rγ domain 1
T2 chain: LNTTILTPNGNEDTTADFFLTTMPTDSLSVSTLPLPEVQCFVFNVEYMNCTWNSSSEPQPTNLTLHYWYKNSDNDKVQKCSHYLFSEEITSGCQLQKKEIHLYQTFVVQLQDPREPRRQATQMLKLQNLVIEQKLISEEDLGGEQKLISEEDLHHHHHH
As to the kind of experiment: SPR, mAb captured on anti-hFc, 25 C. The procedure, abridged: (§1)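 HBS-ET running buffer (10 mM HEPES, 150 mM NaCl, 3 mM EDTA, 0.05% Tween-20, pH 7.4). mAb capture via anti-human Fc. Dissociation monitored 8-10 min. 1:1 kinetic fit; KD, t1/2 derived from ka/kd.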

Assay [5] has as its target T2, D1 domain of human IL-2Rγ extracellular …. In words: SPR, mAb captured on anti-hFc, 37 C. In short, it runs like this:
as §1
(In general: In SPR one partner is held on a chip, and binding of the other changes the refractive index at the surface.)

Assay [6] deals with T3, D2 domain of human IL2Rγ extracellular domain expressed with a C-terminal myc-myc-hexahistidine tag (human).
T3 construct: also called human IL2Rγ domain 2
T3 chain: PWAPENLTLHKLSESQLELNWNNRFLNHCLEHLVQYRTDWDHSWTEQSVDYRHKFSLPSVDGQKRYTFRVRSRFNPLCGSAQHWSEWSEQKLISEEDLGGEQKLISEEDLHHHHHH
In words: SPR, mAb captured on anti-hFc, 25 C. The procedure, abridged: (§2)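 Anti-IL2Rγ antibodies held on an anti-human Fc capture surface with receptor binding to them.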

For assay [7], the target named is T3, D2 domain of human IL2Rγ extracellular …. As to the kind of experiment: SPR, mAb captured on anti-hFc, 37 C. In short, it runs like this: as §2
The target in assay [8] is T2, D1 domain of human IL-2Rγ extracellular …. In words: SPR, mAb captured on anti-hFc, 25 C; 25 C. The procedure: Equilibrium dissociation constants (KD values) for IL-2Rγ binding to purified anti-IL2Rγ monoclonal antibodies were determined using a Biacore 4000 instrument equipped with a real-time surface plasmon resonance biosensor. All binding studies were performed in 10 mM HEPES, 150 mM NaCl, 3 mM EDTA, and 0.05% v/v Surfactant Tween-20, pH 7.4 (HBS-ET) running buffer at 25° C. and 37° C. The Biacore sensor surface was first derivatized by amine coupling with a monoclonal mouse anti-human Fc antibody (GE, # BR-1008-39) to capture anti-IL2Rγ monoclonal antibodies.
The dissociation of monoclonal antibody bound IL2Rγ reagents were monitored for 8-10 minutes in HBS-ET running buffer. Kinetic association (kₐ) and dissociation (kd) rate constants were determined by fitting the real-time sensorgrams to a 1:1 binding model using Scrubber 2.0c curve fitting software. Binding dissociation equilibrium constants (KD) and dissociative half-lives (t_{1/2}) were calculated from the kinetic rate constants as: […]

B1: H4H12922P2 (antibody, human IgG4 S228P, kappa, V domains shown)
VH: QVQLVESGGGVVKPGGSLRLSCAASGFTFSNSGIHWVRQAPGKGLEWVALISYAGSNKYYADSVKGRFTISRDNSKNTLSLQMNSLRAEDTAVYYCAKEVWTGTYDSFDMWGRGTMVTVSS
VL: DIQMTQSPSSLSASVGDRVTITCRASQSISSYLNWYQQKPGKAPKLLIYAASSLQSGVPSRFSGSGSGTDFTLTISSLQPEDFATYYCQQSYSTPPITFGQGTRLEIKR
notes: human IgG4; also called REGN7256
On to B1, for which, in assay [1], the “IC50; IL-2 (10 nM)-induced STAT phosphorylation, human CD4+ T cells” value was found to be 1.87 nM; the “IC50; IL-4 (50 pM)-induced STAT phosphorylation, human CD4+ T cells” value was 8.54e-10 M; the “IC50; IL-7 (1 pM)-induced STAT phosphorylation, human CD4+ T cells” value came to 5.8e-10 M; the “IC50; IL-15 (0.5 nM)-induced STAT phosphorylation, human CD4+ T cells” value amounted to 2.46 nM. Also, the “IC50; IL-21 (50 pM)-induced STAT phosphorylation, human CD4+ T cells” value in assay [1] came out at 2.21e-09 M. The “IC50; IL-9 (2 nM)-induced STAT3 phosphorylation, in vitro differentiated human mast cells” value in assay [2] is 416 pM. Also, in assay [3], the “IC50; IL-2 30 pM; NK92/hIL7R/STAT3-luc” value amounted to 1.6e-08 M, the “IC50; IL-4 250 pM; Ramos.2G6.4C10/STAT3-luc” value came to 1.3e-09 M, the “IC50; IL-7 50 pM; NK92/hIL7R/STAT3-luc” value was 2.6e-09 M and the “IC50; IL-9 20 pM; NK92/hIL7R/STAT3-luc” value came to 3.1e-09 M. For the same molecule, in assay [3], the “IC50; IL-15 60 pM; NK92/hIL7R/STAT3-luc” value was 9.3e-09 M, the “IC50; IL-21 5 pM; NK92/hIL7R/STAT3-luc” value is > 1e-07 M, the “Max Inhibition (%); IL-2 30 pM; NK92/hIL7R/STAT3-luc” value came to 85% and the “Max Inhibition (%); IL-4 250 pM; Ramos.2G6.4C10/STAT3-luc” value was found to be 100%. Moreover, in assay [3], the “Max Inhibition (%); IL-7 50 pM; NK92/hIL7R/STAT3-luc” value turned out to be 98%, the “Max Inhibition (%); IL-9 20 pM; NK92/hIL7R/STAT3-luc” value stood at 99%, the “Max Inhibition (%); IL-15 60 pM; NK92/hIL7R/STAT3-luc” value was 91% and the “Max Inhibition (%); IL-21 5 pM; NK92/hIL7R/STAT3-luc” value stood at 49%. In assay [4], the “100 nM Ag Bound” value was 50 RU, binding was put at a Kd of 3.32 nM, the koff came out at 0.000839 s⁻¹ and the kon was determined as 252000 M⁻¹ s⁻¹. Moreover, the t½ in assay [4] came out at 14 min. Also, in assay [5], the “100 nM Ag Bound” value stood at 26 RU, binding was characterised by a dissociation constant (Kd) of 4.13 nM, the koff came out at 0.00168 s⁻¹ and the kon is 407000 M⁻¹ s⁻¹. Also, the t½ in assay [5] amounted to 7 min. In addition, in assay [6], the “100 nM Ag Bound” value amounted to 2 RU and the binding result was “no binding (tested: 100 nM)”. Further, the “100 nM Ag Bound” value in assay [7] turned out to be 3 RU.

B2: H4H12926P2 (antibody, human IgG4 S228P, kappa, V domains shown)
VH: QVQLQQSGPGLVKPSQTLSLTCAISGDSVSSNIAAWNWIRLSPSRGLEWLGRTFFRSTWFYDYSLSVKGRITINPDTSKNQFSLHLNSVTPEDAAVYYCARTGRRWSLDYWGQGTLVTVSS
VL: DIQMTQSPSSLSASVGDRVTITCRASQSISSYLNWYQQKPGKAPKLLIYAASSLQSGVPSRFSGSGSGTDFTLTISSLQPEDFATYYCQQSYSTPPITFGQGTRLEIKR
notes: human IgG4
Turning to B2, in assay [6], the “100 nM Ag Bound” value turned out to be 0 RU and the binding result is listed as “no binding (tested: 100 nM)”. Moreover, the “100 nM Ag Bound” value in assay [7] is 0 RU. In assay [8], this molecule returned a Kd of 195 nM, a koff of 0.0273 s⁻¹, a kon of 140000 M⁻¹ s⁻¹ and a t½ of 0.4 min.

B3: H4H12889P (antibody, human IgG4 S228P, kappa, V domains shown)
VH: EVQLVESGGGLVQPGGSLRLSCAASGFIFSSYEMHWVRQAPGKGLEWISYISSSGTTIYYADSVKGRFTISRDNAKNSLYLHMNSLRAEDTAVYYCTRARITGTFDVFDIWGQGTMVTVSS
VL: DIQMTQSPSSLSASVGDRVTITCRASQSISSYLNWYQQKPGKAPKLLIFAASNLQSGVPSRFSGSRSGTDFTLTISSLQPEDFATYYCQQNYNIPYTFGQGTKLEIKR
notes: human IgG4; also called REGN7257
With B3, in assay [1], the “IC50; IL-2 (10 nM)-induced STAT phosphorylation, human CD4+ T cells” value was found to be 2.06 nM; the “IC50; IL-4 (50 pM)-induced STAT phosphorylation, human CD4+ T cells” value turned out to be 1.1e-09 M; the “IC50; IL-7 (1 pM)-induced STAT phosphorylation, human CD4+ T cells” value is 8.92e-10 M; the “IC50; IL-15 (0.5 nM)-induced STAT phosphorylation, human CD4+ T cells” value is 2.55 nM. Further, the “IC50; IL-21 (50 pM)-induced STAT phosphorylation, human CD4+ T cells” value in assay [1] stood at 2.28e-09 M. Moreover, the “IC50; IL-9 (2 nM)-induced STAT3 phosphorylation, in vitro differentiated human mast cells” value in assay [2] is 441 pM. In assay [3], the “IC50; IL-2 30 pM; NK92/hIL7R/STAT3-luc” value stood at 2.7e-08 M, the “IC50; IL-4 250 pM; Ramos.2G6.4C10/STAT3-luc” value was found to be 1.9e-09 M, the “IC50; IL-7 50 pM; NK92/hIL7R/STAT3-luc” value turned out to be 3e-09 M and the “IC50; IL-9 20 pM; NK92/hIL7R/STAT3-luc” value worked out at 7.1e-09 M. In assay [3], the “IC50; IL-15 60 pM; NK92/hIL7R/STAT3-luc” value was 8.5e-09 M, the “IC50; IL-21 5 pM; NK92/hIL7R/STAT3-luc” value was > 1e-07 M, the “Max Inhibition (%); IL-2 30 pM; NK92/hIL7R/STAT3-luc” value was 81% and the “Max Inhibition (%); IL-4 250 pM; Ramos.2G6.4C10/STAT3-luc” value was determined as 101%. Further, in assay [3], the “Max Inhibition (%); IL-7 50 pM; NK92/hIL7R/STAT3-luc” value came to 100%, the “Max Inhibition (%); IL-9 20 pM; NK92/hIL7R/STAT3-luc” value was 100%, the “Max Inhibition (%); IL-15 60 pM; NK92/hIL7R/STAT3-luc” value was determined as 92% and the “Max Inhibition (%); IL-21 5 pM; NK92/hIL7R/STAT3-luc” value was found to be 35%. Further, in assay [4], the “100 nM Ag Bound” value was found to be 38 RU, the Kd was 5.34 nM, the koff was 0.00107 s⁻¹ and the kon turned out to be 200000 M⁻¹ s⁻¹. This molecule also returned a t½ in assay [4] of 11 min. Moreover, in assay [5], the “100 nM Ag Bound” value was found to be 16 RU, binding was characterised by a dissociation constant (Kd) of 20 nM, the koff was 0.00507 s⁻¹ and the association rate constant (kon) was 254000 M⁻¹ s⁻¹. Besides, the t½ in assay [5] was 2.3 min. In assay [6], the “100 nM Ag Bound” value is 0 RU and the binding result is recorded as “no binding (tested: 100 nM)”. Moreover, the “100 nM Ag Bound” value in assay [7] amounted to 0 RU.

The term Kd denotes the concentration at which binding is half-saturated. A higher Kd goes with a looser complex. By koff is commonly meant the rate constant with which the complex falls apart. The low end stands for slow dissociation, the high end for fast dissociation. A word on the kon: it is a measure of how fast the partners come together. Read a high kon as fast association. The t½ is the time in which the quantity being followed falls by half. The low end stands for fast loss, the high end for slow loss.
